{
  "source": "the DeepSol protein solubility set",
  "data": [
    {"assay": "soluble on expression in E. coli; label from the status in PepcDB or PDB records", "values": [
      {"sequence": "IINGEDCSPHSQPWQAALVMENELFCSGVLVHPQWVLSAAHCFQNSYTIGLGLHSLEADQEPGSQMVEASLSVRHPEYNRPLLANDLMLIKLDESVSESDTIRSISIASQCPTAGNSCLVSGWGLLANGRMPTVLQCVNVSVVSEEVCSKLYDPLYHPSMFCAGGGQDQKDSCNGDSGGPLICNGYLQGLVSFGKAPCGQVGVPGVYTNLCKFTEWIEKTVQA", "soluble on expression in E. coli": "soluble"},
      {"sequence": "KNSINTIKLIDDIIALHNDPKGNKLLWNDNWQDKIINRDLANIFEKIDESVSELGGLEMYQEMVGVNPYDPTEPVCGLSAQNIFKLMTEGEHAVDPVEMAQTGKIDGNEFAESVDQLSSAKNYVALVNDRRLGHMFLIDIPSNDQETVGYIYQSDLGQGALPPLKIADWLNSRGKDAVSLNKLKKLLSREFNLLSDDEKRALISETLDIHKDVSNVELDRIKRDRGVDIYLTEYDVNNFYENIETLKSKLSNYDKKLSKPK", "soluble on expression in E. coli": "soluble"},
      {"sequence": "MSLRPRQLLLATDLGARCDRALDRAIQLSRAWHAALTVVHAVEQVELIDDEPSWRQPPDAALAIQAELEDELGEAGLSSIDARVLKGKPSEVVLKVAEEVEAELILTGVKRDGALEKALLGDTVTELARQSRVPVLVVKKRLRKPYGRIVVATDLSELSRAALARAVDLFGPDNLVVFHASFAHFASRMDDRVAYESELRSDAIQNCRDFIRDVAGEEAAATMEVMVEYGEPDLLLEKYVQDKQVDLVVVSTRGRSGLLGVLLGSVAMRILDSVACDVLIVRSEGHHHHHH", "soluble on expression in E. coli": "soluble"},
      {"sequence": "LTKRVQEAQAMTEGERRKLSSVLAYMTDGVIATDRRGKVILINTPAEKMLRVKHESANGRSIIDVLDIGDTYQFEDLMEVDGSLTMDRSTLDKPYVLRANFSVIQRETGFNNGVIAVLHDIT", "soluble on expression in E. coli": "not soluble"},
      {"sequence": "MGELIEGVWHPNWYDTASNGGRFVRSRARFRNWITADGSPGPSGEGGFPAEAGRYHLYVAHACPWAHRTMIFRALKDLAPLIDVSVVHPEMLEDGWTFDRSFPGATGDRLYGLAFLREIYLKADPGISARVTVPVLWDRKRETIVSNESAEIIRMFNAAFDHLTGNRVDFLPEGDLAEIDRLNDRIYGTVNNGVYRAGFATTQEAYDEAAAPLFETLDWLEERLATRRYLVGDRLTEADWRLFTTLVRFDKVYHTHFKCNRRQIVQYPNLWGWLRELWQVPGVAETVHFDHIVRHYYFSHDTINPHRIVPLTPDPDFAAPHGRDQLFQASRLR", "soluble on expression in E. coli": "not soluble"},
      {"sequence": "VSAADTAEDLPEQFRIRRDKRARLLAQGRDPYPVAVPRTHTLAEVRAAHPDLPIDTATEDIVGVAGRVIFARNSGKLCFATLQDGDGTQLQVMISLDKVGQAALDAWKADVDLGDIVYVHGAVISSRRGELSVLADCWRIAAKSLRPLPVAHKEMSEESRVRQRYVDLIVRPEARAVARLRIAVVRAIRTALQRRGFLEVETPVLQTLAGGAAARPFATHSNALDIDLYLRIAPELFLKRCIVGGFDKVFELNRVFRNEGADSTHSPEFSMLETYQTYGTYDDSAVVTRELIQEVADEAIGTRQLPLPDGSVYDIDGEWATIQMYPSLSVALGEEITPQTTVDRLRGIADSLGLEKDPAIHDNRGFGHGKLIEELWERTVGKSLSAPTFVKDFPVQTTPLTRQHRSIPGVTEKWDLYLRGIELATGYSELSDPVVQRERFADQARAAAAGDDEAMVLDEDFLAALEYGMPPCTGTGMGIDRLLMSLTGLSIRETVLFPIVRPHSN", "soluble on expression in E. coli": "not soluble"},
      {"sequence": "MGSDKIHHHHHHLYVPLLIRQQYIRSGPDYRFSEPVSFLDIKQTFGFSHVRVGRWVTREESRIAANLVFDSLADLAFILKLPPLTLGLRQTLSLAFGHGGQKGVQAHYAPATRELALAKNAGAGALAHEFWHAFDHYIAPKAFNLSEGHFLCASDLWLADSPLIKHPLNLRLSEIFKVTLLSPDGKEPSDYVRRALALDKRYGTRYFSQPTEMMARAFEACIESYRDISNPYLVSGTSFSAMAKEGAYPDELHRQRIFTALLDYFEPLGIALAK", "soluble on expression in E. coli": "not soluble"},
      {"sequence": "MAHHHHHHMQQENRHLSSADLFKKFTLQNVAQIANISNKEQSQIRGELTEQYPLLADFWEDIMPKKPDIMLVRCHDQVHCVTLVSSQPEVLFFRHHNSPYIPHLKLLHKYPFILPRQQVDIGGCKYVVSGANVMCPGLTSEGGYITPGLAAGAIVAIHVEQKEHAIAVGRMLMSSEEIERVNNGPGIENIHHLGDGLWMNRVLSSSHIGAR", "soluble on expression in E. coli": "not soluble"},
      {"sequence": "RNRFTRRKIVYIHEGMNVPLLGYNAFGLIDRGTNLIQVRGSTGCNLSCIFCSVDEGPYSRTRNLDFVVDVDYLMKWFDWVAKEKGKGLEAHLDAQGEPLLYPYIVELVQELRSHPHVSVISMQSNGVLLDEKLVEELAEAGLDRVNLSIHSLDPEKAKMLMGMKNYDLNHVLEMAEALVNAGIDVLIAPVIIFGINDNEAEAFIEFARRIGAGKRWPALGFQNYVPYKFGRNPVIAKPVPFKEFYEWLRMLEEKTGMRPLVLKPHHFGMHPRPFIPLAFKR", "soluble on expression in E. coli": "not soluble"},
      {"sequence": "MGHHHHHHENLYFQSHLYFQSHINEQEREIEKLKRQMAEYGAIIKSLQFRQNSLEDTFIPDLTPKVEPSVNPTGCLLGSNAVHLMRDIKKECDYLGIPDPVPATKPTTQAQDDSQKKAKRSCFGRLFTGPFRRGTSAMKTADEYEKDDRLEELYAQLERDPDP", "soluble on expression in E. coli": "not soluble"},
      {"sequence": "MKTMTLYVCQNCGYQSAKWLGKCPDCSAWNSLVEEVRGKGKGPSAPLSGVAPVPICDVAGEAEERLPCGISEFDRVLGGGLVAGSVILIGGDPGIGKSTLLLQVMDHLARTVGPVLYVSGEESARQARLRGERLGIRAKELLILAETALETVLAQIGAVAPRAVVIDSIQTMYAPGLESAPGSVSQVRECAGRLMVAAKRSAIPTFIVGHVTKDGSIAGPRVLEHMVDTVLYFEGDRGHAFRILRAVKNRFGSTNEIGVFEMKEGGLCEVRNPSEIFLSERPLGVSGSAVVTTIEGSRPLLVELQALVTPSSLGVPRRTTLGVDANRLALLVAVLDKKVGLHMAGQDIFLNAAGGARVSEPAADLGMVAALASSHLDKVIDPQTVVVGEVGLAGEVRAITQPETRVREAAKLGFTRAVIPAGSLKQVTAVEGMEVIGVKSVEEALDRLLLEHHHHHH", "soluble on expression in E. coli": "not soluble"},
      {"sequence": "GIFPAEIEDLAQKQVAVDLTQPSRFLLKVLAGANIGAEFHLDSGKTYIVGSDPQVADIVLSDMSISRQHAKIIIGNDNSVLIEDLGSKNGVIVEGRKIEHQSTLSANQVVALGTTLFLLVDYAAPS", "soluble on expression in E. coli": "soluble"},
      {"sequence": "MTKSQIMDLSNFYQDTDYPSGRLIALLILSLGLTPAEIANLKKADFDTTFNILSIEKSQMKRILKLPEDLLPFLLESLEEDGDLVFEHNGKPYSRQWFFNQLTDFLNEKNEQQLTAQLLREQFILKQKENGKTMTELSRLLGLKTPITLERYYRLEHHHHHH", "soluble on expression in E. coli": "not soluble"},
      {"sequence": "GMSKIFNEELAVIEAAAIAYLTAFNRADIPAVIATYTDDGVLMGPGRPAAVGKDELAEVYLSVFETVGFDMAYEIKEVVQTSADWAFVRSATEGTETNKATGVVTPAAYQELFLLRKSATGSWQTARYCTSKISP", "soluble on expression in E. coli": "soluble"},
      {"sequence": "MSLAEIGVDAAFIDLLVETFYGRVLEHQTLGPVFDARLAGRWPEHMARMKQFWTAIAFKNGSYGGKPVQAHLGVQGMSAELFPQWLALFSVTLDDIAPSRKAHDWFMETAERIARSLTLSLFYNPAMDDPAVKREGHHHHHH", "soluble on expression in E. coli": "not soluble"},
      {"sequence": "MDLEYAMNPGGRRRFQNKDQATYGVFAPDSDDDDDEQGTSRGPYKKRSKISAPMSFVSGGIQQGNKIDKDDPASLNLNLGGEKKPKEDDEGSIQIDFDKRTKKAPKQNGAQVFAGMRSSANHGAADINQFGSWMRGDGNSNKIMKMMQAMGYKPGEGLGAQGQGIVEPVQAQLRKGRGAVGAYGKESTATGPKFGESAADAQKRMAQEGTSSRPTNDDQEKSGLKIKGSWKKSQTVKTKYRTIEDVMEEGMSASRPASHQQSQQYSNIKVIDMTGKQQKIYSGYDSFSMKTRSEYDTVDDEERTVFDVPELIHNLNLLVDLTEEGIRRSNQQLISLKDQTTALEYDLQQVQKSLGTEEQEAQHIKDVYELIDGFSSNRSPSMEECQELFRRLRSEFPHEYELYSLETVAIPTVLPLIQKYFVAWKPLEDKNYGCELISTWRDILDDSKNGRKMTFGHNKTKGDEIRAYDRIIWEGILPSIRRACLQWDPSTQMHEMIELVEQWIPLLSAWITENILEQLVVPKIAERVNQWDPMTDEIPIHEWLVPWLVLLGDRIQTVMPPIRQKLSKALKLWDPMDRSALETLRPWQNVWSAATFSAFIAQNIVPKLGVALDTMELNPTMNPEYPEWTACMEWLEFTHPDAIANIVTKYFFPRFYNCLCLWLDSPGVDYNEVKRWYGSWKARIPQVLVNYPTVNENLRRSMIAIGRSLQGEKVGGLQATPIAPMAPPPPMAPHFTQAAPVQKLSLKEIIEYTAGKNGFTYHPQKDRYKDGRQVFWFGALSIYLDSEMVYVMDPIEFVWRPSGLNELIQMAQGAQG", "soluble on expression in E. coli": "not soluble"},
      {"sequence": "MLTVIAEIRTRPGQHHRQAVLDQFAKIVPTVLKEEGCHGYAPMVDCAAGVSFQSMAPDSIVMIEQWESIAHLEAHLQTPHMKAYSEAVKGDVLEMNIRILQPGI", "soluble on expression in E. coli": "soluble"},
      {"sequence": "MKAKLVSLLAQANIKISDQQIQQLINLVNLLNKWNKAYNLTSVRDPQEMLVKHILDSLVVSPYLQGDRFIDVGTGPGLPGLPLAIINPSKQFVLLDSLGKRISFIRNAIRELRLTNVTPVLSRVEEYQPEDKFDGVLSRAFASLKDMTDWCHHLPKENGYFYALKGIYQEDEINELNKKYTIQKVIELSVPELIGERHLIVLRLEHHHHHH", "soluble on expression in E. coli": "not soluble"},
      {"sequence": "MSNKEYRPTLAQLRTFATIAENKHFGTAAAKLSISQPSLSQALAALENGLGVQLIERSTRRVIVTPAGEMLLPYAKATLDAADAFLAHAH", "soluble on expression in E. coli": "soluble"},
      {"sequence": "GPGSMIFFFTLNLHDRSSLDLRVEFLFSCSDSSDSVAQHLRAIGMRGQLVQKGAATLYAGPKIASYTDACEAPVAMWEGAIPLKHERVLNGGVATRVVKKTYSHPPEIHPTNLSFNDIDSMYCLGNDELIKYFPEGVGGKMMQLMPPGHPRGFLYRKQSHLLNCFIDKLPFWQSKEKALRSLTNGRPGFIMDGPTGCGKSALLCQAVHYARSRDIITLYIANAKAWTHGEWCWPSTILPGFFDAPDAAREFLRTVAEANGSLLQAWELRVTPQDLPLEQGEKQPRSLYDLCEWGHRAVAPASIDRQSVCIKFFFDEIRAEKTKPIIIAVDGWNLFSHETHFRYPHPDFLRTLTTLNDGLTDVDLYPQELPRIPASRLSFVRGLNKLILSKQDPNKFFITCTTRDFKPFDGVSGFADVENDRFKNSLDEYAPYDPEKDSFFHPMQVENFTEYEYRAFLRFAINSGELAGLGWGPMWHYSSDFERKLYKIDFMSDRNPQRVVDHYHQELVWRYEYKRTRQKQYLLARRKMWQGAEVSNPLRNGK", "soluble on expression in E. coli": "not soluble"},
      {"sequence": "MAESKAKNMFQKLSLTPKRNHEHDAGRNIETEEELLQKLKRLKLDNDYLHMWLSYEKLATIVENRSTDKTRKPEYGKLIFYYQGAAHALVSIWKRDSDLPFEQYISGDIARLFNKALDVAIRHMDPTVVHTIARDGGVALMSIDKPIEARDVLVRGENHLVAVPADGQLDFLERLIVLYYIMDSILIEERWNEYMVYTDKVWMMTMKEDKRCPLLENIIKEVEQVAVLLLVFQRKVECSERHKQLLASYRLDDWKAPIIKHNPPLSSLNPSEQKVFRRFLFYMMSNKRSVDKVLKHR", "soluble on expression in E. coli": "not soluble"},
      {"sequence": "SLPLPLVVAVLDSEDEKEGRTCAIVAFGFRYIHPASGAQVDVPEGYVTDFASIPAPVRGLFPPFGRHAKAAVLHDWLYLIGEPGQRAFADRIFLDAMDDLRVSLVRRSIMHRAVRLAGGGAYAKEASTWARAFGNWRTGDRHTPPFTAESRYQAHWPVPPRPDFRP", "soluble on expression in E. coli": "not soluble"},
      {"sequence": "YLSDVISSPQFEQAKSPTTVVLGQDIAGEAVIADIAKMPHVLVAGTTGSGKSVGVNVMILSMLYKASPEDLRFIMIDPKMLELSIYEGIPHLLAEVVTDMKDASNALRWCVGEMERRYKLMSALGVRNVKGFNEKLKMAAEAGHPIHDPFWQEGDSMDTEPPLLEKLPYIVVVVDEFADLMMVVGKKVEELIARLAQKARAAGIHLILATQRPSV", "soluble on expression in E. coli": "not soluble"}
    ]}
  ]
}
